Values of other authors in publication PMC7221782.
“And” between values parts separate entries of the source, which are not always exact repeats. Equal entries are not always repeated.

Molecular target: Gal4 (Saccharomyces cerevisiae) (UniProt P04386)

Kd: 8.5 µM and 20 µM
Substance: Gal4 (from UniProt P04386)
